Data reported in the supplement of paper PMC9170038.

Tested on: MS2 coat protein
Experiment: apparent KD of MS2 coat protein; designed switch direction (-1 OFF switch, 1 ON switch): -1; higher = weaker reporter binding
In short: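 On Illumina chips, designed RNA switches with common flanks were made by stalled E. coli RNA polymerase. Titrations with SNAP-549-labelled MS2 coat protein, doubling from 0.7 or 1.5 nM to 3 µM, were done with no input, with 200 uM small-molecule ligand, or with an oligonucleotide input. Apparent KD is the median per design over clusters, from curve fits of normalised cluster fluorescence.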

[1] = input ligand: microRNA oligo, concentration not stated
[2] = Eterna round: R95, input ligand: FMN 200 uM
[3] = Eterna round: R95, input ligand: microRNA oligo, concentration not stated
[4] = Eterna round: R95, input ligand: none

Sequence | apparent KD of MS2 coat protein (input ligand: FMN 200 uM) [nM] | apparent KD of MS2 coat protein [1] [nM] | apparent KD of MS2 coat protein (input ligand: none) [nM] | apparent KD of MS2 coat protein [2] [nM] | apparent KD of MS2 coat protein [3] [nM] | apparent KD of MS2 coat protein [4] [nM]
AAGAGCAAGGCAGGAUAUCACAUGAGGAUCACCCAUGUAUCCGAAAGAACAACGCCCGCGUUGUGUGAGAAGGGUCUAUGCAGG [Eternabot solution 10] (Eterna round: R96, puzzle: Exclusion NG 2) | 370 | 61.6 | 75.8 |  |  | 
GUCUUCAUGACAUGAGGAUCACCCAUGUGUUAUAUGUUAACUAAGGAUAUAUUUUUAAUGUUGAGAUAGAAGGUAGUUUCGGUC [JR_ExcNG3_Sub091] (Eterna round: R96, puzzle: Exclusion NG 3) | 120 | 95.8 | 131 |  |  | 
AAGUACCGUCACGAUAGUGAUGGUACAACAGGUAAAUGUACAUGAGGAUCACCCAUGUCCUCUUUUGCUCGUCUUAU [Sensor 3 - 93] (puzzle: Sensor v3, turn-off variant 2) |  |  |  | 147 | 36.2 | 160
AGCUGUGGCCGAGGAUAUCCAGCCUUAAAUACCGACGUAUAGUCGGACAUGAGGAUCACCCAUGUGGAGAAGGUGGUCUCAGCA [Eli eng2 - 041] (Eterna round: R96, puzzle: Exclusion NG 2) | 93.1 | 41.8 | 42.7 |  |  | 
UAGAAUCGAGGAUAUACAUGAGGAUCACCCAUGUGUGGCCAUUUGGUGUGGUCGUCAGGUAGAAGGCGAUUACA [Exclusion 3 - Mod of Jieux's Gilly Gone Silly 23 v.5] (Eterna round: R96, puzzle: Exclusion 3) | 173 | 211 | 412 |  |  | 
ACAUGAGGAUCACCCAUGUGAAAACAAUGGCUGACUUUGAGACAGGAUAUUCGUGCAUAUCAAACGAAGAAGGGUCAUUACUGG [Deportation 94 - Jieux - Exclusion NG 3] (Eterna round: R96, puzzle: Exclusion NG 3) | 42.2 | 26.4 | 37.7 |  |  | 
GAUUAUGCGAGCUUUAGGGACAUGAGGAUCACCCAUGUUCGUCUUAUUAGUCUGAAUGCACUGACAUACCUAAAUCU [JMF 75] (puzzle: Sensor v3, turn-off variant 1) |  |  |  | 16.2 | 17.7 | 16.1
AAAAGGUCAGGAUAUUCAAGAAAAGAAAAGAAAAGAAAAGAGAAGAAGGGACAUGAGGAUCACCCAUGUAAAAG [Default title] (puzzle: Exclusion 4) |  |  |  | 24.9 | 18.9 | 13.5
CUUAGACAUGAGGAUCACCCAUGUGAGGAUAUGAAAUUAAUUAAGUAUGAAGUAUGAAUCAGAAGGCACAUAUG [Mat - Mod of Hyphema D34] (puzzle: Exclusion 1) |  |  |  | 61.7 | 92.1 | 81.6
AAUGUGUAAGGAUAUCCGAAAAGCGAGCGAAAGCGAGCGAAGGAGAAGGUACAUGAGGAUCACCCAUGUAAGGG [AK-MS2ROC-r4-exclusion4-11.6] (Eterna round: R97, puzzle: Exclusion 4) | 71.5 |  | 530 |  |  | 
AGUGUGUGGCAGGAUAUUCUAAUGAUUAGGAGGGAAGAAGGGUCUACAUGAGGAUCACCCAUGUAAGCGGUUGA [Ex6 #39] (Eterna round: R97, puzzle: Exclusion 6) | 135 |  | 38.3 |  |  | 
AUAUGCAAGUAAAGAUCCUACAUGAGGAUCACCCAUGUGCUCGUCUUAUAAAGUACUAUCACGAAAGUGAUAGUACA [Mat - Sensor v3 - turn-off var 1 - Eli Mod - D84] (puzzle: Sensor v3, turn-off variant 1) |  |  |  | 215 | 15.6 | 170
AAGUCGACGGUGAGGAUAUAGGUUGAACGACAGAUCUAGAAGGUACAUGAGGAUCACCCAUGUGGGUAACGUCG [Brourd's EX4 #36] (Eterna round: R97, puzzle: Brourd's mod of Exclusion 4) | 54.8 |  | 98.2 |  |  | 
AUUUUGUCAGGAUAUUGUUAGUUUAGUUGUUUGUAUUAGUUCGAGAAGGGACAUGAGGAUCACCCAUGUGAUAA [Ex4 #72] (Eterna round: R97, puzzle: Exclusion 4) | 71.9 |  | 62.6 |  |  | 
CAUGUCCAACGAGGAUAUGGGACAGGAAGUGUACCAGAAGGCGUACGGACAUGAGGAUCACCCAUGUCGCGCGGUGCGAUGUGG [MOD Nando EXNG 1.1] (Eterna round: R96, puzzle: Exclusion NG 1) | 47 | 23.8 | 91.7 |  |  | 
GCUUUUCUUUUCCUUUCUUACAUGAGGAUCACCCAUGUUUCUUGUCGUCCUCGCGUUGCUCGUCUGUCUGUCUGUUG [salish99_TOv1_r3_078] (puzzle: Sensor v3, turn-off variant 1) |  |  |  | 97.8 | 135 | 95.9
UUUGCAAGCUUUAGAUCCCACAUGAGGAUCACCCAUGUUGCUGCCGUGAGGUAGCUUUUAACUAAUGCUCGUCUUAU [JL TOV1 3.45] (Eterna round: R97, puzzle: Sensor, turn-off variant 1) | 88.2 |  | 163 |  |  | 
CCGCUGCAAGGAUAUACUUGCGGUGGUGCUCGAGUUCUUCUACUUGAGGAUCACCCAAGUAGAAGGUGCAAAAC [jl-ex2.4.57 ViennaUCT mod] (Eterna round: R97, puzzle: Exclusion 2) | 34.4 |  | 17.1 |  |  | 
ACAUGUCAUUGAGGAUAUUGCACACAUGAGGAUCACCCAUGUAUACGGUUGCUCUUACGUGAGUUCGAGAAGGCGAUGUACAUU [Ex NG2 #88] (Eterna round: R96, puzzle: Exclusion NG 2) | 153 | 123 | 181 |  |  | 
AAAAGUUGGUAAGGAUAUCCCACAUUAUUCUGACCCGUGCAAGCUACAUGAGGAUCACCCAUGUGGGAGAAGGUGCGUUAAAGA [Zatiisor] (Eterna round: R96, puzzle: Exclusion NG 2) | 209 | 55.1 | 78.8 |  |  | 
UCUCGCGGGCAAGGAUAUCCUACGCUGUUCUGGCCCGUGUUUGUUACAUGAGGAUCACCCAUGUGGGAGAAGGUGCACCAGGGC [Design 41] (Eterna round: R96, puzzle: Exclusion NG 2) | 62 | 36.5 | 76.4 |  |  | 
AGUACUAACACGGAAGUGUUAGUACAAUAAGCUUGUGUUACAUGAGGAUCACCCAUGUCCUCAUAAGCUCGUCUUAA [Mat - Sensor v3 - Turn-off var 2 - D62] (puzzle: Sensor v3, turn-off variant 2) |  |  |  | 48.4 | 487 | 40.2
UUUUUAUAUGAAGGAUAUACUUAACAUGAGGAUCACCCAUGUGGUGUUGUGAGUGAGUGAGUUUAGUAGAAGGUCAAUGAUUCU [JMF's solution 61] (Eterna round: R96, puzzle: Exclusion NG 2) | 864 | 299 | 419 |  |  | 
